Data on 17 sequences can be found in the DeepSol protein solubility set.

This data set can be described thus: soluble on expression in E. coli; label from the status in PepcDB or PDB records.
Regarding “MDWQNRFSVLNLSSHDPLPELMLTHLTGWGAITLVGADKKAYLQGQVTCNVVSLQEQQVTFGAHCDAKGKVWSVFRLFHHHDGYAMFQPQSAMEVELRELKKYAIFSKVTIAESSDIALGVMGSQADAWIDTVSETTGDVRRIAGGTAVRMSPQRWLLLVNAEQAEQYVNAWQGLHVEQSLWTRMDIEEAVPVVTQTAQNEHIPQALNVQAVDGISFTKGCYTGQETVARAKYRGINKRAMYIVKGNLSAPLSQDEPVVLERAVGENWRSAGALLTHYRFTDSIAIGLIVLPNDLEHDVKLRLAAQPDTRWHIQPLPYSLSDELEHHHHHH”, the “soluble on expression in E. coli” value is “soluble”.
In the case of “MDYDVLILGGGIIGCSIAYELSKYSLNVSLIEKEYEIGDDTSIVNSDLVYDGIESKYNFNYGLETEGNQEIEKICSVLSVPFKKVNAIVCSRDKENEDTINKIYSRGIKRGIKDASLANIESAIAKSIILKDINNKGIELKDIGIVCADDLALAYGEVAFDNGVNFRLNEKVIEIKKISKGFNVTTSKNKFTCKIVINTIPDASSPILVDGKEDKGSKKNISNLIYFVLDRKVKASLKHAIAVLSNKGDSTYIFRDFEDNIIVKIVTKDDCLYDEALDKLKAVIGDIEEEDIIYFYKSRFINDKIVITNKLDSDGYIKVQCKSYAISTVTPSISRNVGEAIVKNLNCKLKKEFYGRRREIYRFRDMSNKQRQKLIATNPDYGKIICRCNQVTEGEIIDSIRRPLGARTLNGIKRRTGVFNGECLGTCCIDKIVKILAKETNKSLTEVIKKTENSSIVKGRIKEFDEMLEHHHHHH”, the “soluble on expression in E. coli” value is “not soluble”.
Under “MDYNVKDFGALGDGVSDDRASIQAAIDAAYAAGGGTVYLPAGEYRVSAAGEPGDGCLMLKDGVYLAGAGMGETVIKLIDGSDQKITGMVRSAYGEETSNFGMRDLTLDGNRDNTSGKVDGWFNGYIPGGDGADRDVTIERVEVREMSGYGFDPHEQTINLTIRDSVAHDNGLDGFVADYLVDSVFENNVAYANDRHGFNVVTSTHDFVMTNNVAYGNGSSGLVVQRGLEDLALPSNILIDGGAYYDNAREGVLLKMTSDITLQNADIHGNGSSGVRVYGAQDVQILDNQIHDNAQAAAVPEVLLQSFDDTAGASGTYYTTLNTRIEGNTISGSANSTYGIQERNDGTDYSSLIDNDIAGVQQPIQLYGPHSTVSGEP” stands “soluble”.
Regarding “MDYQLYTLPSGLHVVYKPHAGEVTYAGFAIGVGTRHESSRHHGLAHLTEHMLFKGTSLRNSLQIIRRMEEVGAELNAFTEKESTYVYCIFPKAHFNRATNLLFDIVQHSRFPEEELTKEKTVVIDEIDSYRDNPSELIFDEFENILFRHHPLGHNILGTEASVSRITGQIGRNFLRRHYRPDNMIFFLAGEADLSDWPLNPAEKVSIRNTDGTPLHTLREGFLPRTIRRHKDTYQHHILMGGPAYSLHDDRRIPLSLLNNILGGPGMNSRLNLSLREEHGYVYNVESNYTPYSDTGVFNIYLGCAPRYAEAAMELVRKELRYLIEHPLSPIELESAKRQFKGQLIVSADNKESTFLSLGKSMLLYGKYDPLSDIFHRIDAITSDRLREIAAEVLNPDSMLTLIYC”, the “soluble on expression in E. coli” value is listed as “not soluble”.
For “MEAEEIIGLLKKGDLEKAKDALSKEIDNLSDEELKEILEVAESVAKEKEDIELLKLVVYYYAEFFGIDKLEEFEGIAKEKGYEGLMHLADLYSLLGYPEKALDIYRELLKTDLIKEKEHIGEIYYGIATIHDELQEYDKALEAINEAVKAFKESNNVEKLHQAEVYRAYITFENGDRDKAKEILAGLLPHVTNREIKAQIHLVFKEIFEDEENYEAAIQESLYSLIEGIDTEVFDLAFDGLIDLIWELILEDKFEEIYKSMPMFKVAIPSLKDFFEGVRRIAMYREGKIGREEVSEILMKVKDERLVSILEFLGEAEV”, the “soluble on expression in E. coli” value is “soluble”.
For “MEAGLDQSEIDERCECLKEVATSPAGRVLATDKQLDNLEQFISLVPGYIEKVRSHRVAVKAEEKRKAEEKRRQEEKEEEARKAREKQIEEERKAKEEQRANEERAKEERDRRALEVIVPPRQNSANSNINASVAFITNRLEMGSFSENNETVDRTIDTTATTVLSASSNAAQVDFVSFIKNSGEYLMVRKKKFPVDELVNNEKLGYPLGVTYDEKSKYWIICDRNLNKVLLMNVAESDVRVFEGPHLRNPTAVAVFEKGKSVVILCAPGNNQHVIYIYDFVDEIMHQFASHSDPLYNMKSQLRGLAISLGGNVLSLECSHAAAPKRLRIFKRDVGGKGFDIMGAKTPSFIASHNSKVAISDLGNNTVLIGNLIDTDWNKMSFSVLRIIETTQDLTLDQLANNNGFKFVSGMQFDTYGHLLIGDAKGHTIKLYDTDYKFLHRISSDFPLPYMSSFHISSSGEGIILDVHAQQKLHWVKMESIENITPWKAPPYQPKQSRENYQNRRF”, the “soluble on expression in E. coli” value is listed as “not soluble”.
Turning to “MEANKREIVDFGGLRSYFFPNLAHYITKNDEELFNNTSQANKLAAFVLGASKDAPGDEDILEMILPNDANAAVIAAGMDVCLLLGDKFRPKFDAAAEKLSGLGHAHDLVSVIDDDKKLGMLARKAKLKKTEDAKILQALLKVIAIDDAAEKFVELTELVSQLDLDFDVYVLTKILGLISEETSDEVDIIRDNVVNAFDSCKPLLKQLMLDGPKSEPADPFISLLMDPLEESVGKVVNHIAQLFEEASKNEGDESLVLRSQLGYQLFFLIVRSLADGKREVSKKILSGIPTSVRAEVFPGLQRSVYKSAVFLGNHIIQVLLGSKKSFEDWDVVGVAKDLESAWKRRAIAELIKKFQVSILEQCFDKPVPLIPQSPLNNDAVIDNVNKALQFALWLTEFYGSENETEALGELRFLDSTSKNLLVDSFKKFVQGINSKTHVTRIVESLEKCCLSDTPSGRKSNVQPSTSQQQDSAYTKEEMTTVHNTYSVNTKAQVLNGLSDTNSSGLLVDSKDSLSLQEISCDEVDSSTLLSSSRNIGEGVTVKAVDPVPEKVNDAQQQQTVNEIEMASDANQDTSSSASPEVAPSFSTDGWDSPTKSVALPPGMQQIDEEETTVADKDSTPQPQARAETAWGSGDATPMPLPAPTNQYKVSGFGEAKVAKGFGQFAPTSSAYGGGGGRGGYGGGDRGGRGGYGGDRGGRGGYGGGDRGGRGGYGGDRGRGGYGGRGGRGGF”, the “soluble on expression in E. coli” value is given as “not soluble”.
Take “MEANMKKVIGAATATVFGLGAFTTTATAETIVTADVLNVREKPTTESKVVEKVKNGQELKVINTEDGWSKIELNGKEVFVSSEFTKDVYHVTANLLNVRTEANTDSEILGRLKKDDVIESTHQVKDGWLQFEYKGKTAYANVSFLSSTAPTEKKTEEKTKQVAKVQKSVKEKKEVKTQKVAKAKETTKAQEIVKPKEEAKVVKVKEEEKAQEIVKPKEEAKIKEEVKVKEEVKVKEEEKAQEIAKAKEEAKIKEEVKVKEEEKAQEIVKAKEEVKAKEEEKAQEIVKAKEEVKVKEEVKAKEIAKAKEEEKAREIAKAKEEEKAKEIAKAKEEEKAREIAKAKEEEKAREIAKAKEEEKAREIAKAKEEEKAREIAKAKEEERAKEASKNNIQSAKRELTVVATAYTADPSENGTYGGRVLTAMGHDLTANPNMRIIAVDPKVIPLGSKVWVEGYGEAIAGDTGSAIKGNRIDVLMGSKSKAMNWGRQTVKVKILLEHHHHHH”: the “soluble on expression in E. coli” value is reported as “not soluble”.
For “MEAPLYPDLPPDLCAPRGGQPAFWVGPRHLAGDDGRLYDVVADALAGLGWTSLTIVRGRHEPDEEPEDRQVLRSTVLHISPDALRWAQWCAADEPFHLGGLPIAWQISVRAEVSSPLAQWSAYFTRDVPGEAVVDFLVALDASNQPAVSLAGAELVLDAVAAHGWFRDIDQPEAVATDPAFTSHISLGEVPPLIQDGDLRVLSAEDDETGPDGWQAWAEPVLGAPLLWVASFAASVPHDLVAAFAASLSSTAPVLRRVLPEATHERLLRAPAILEHHHHHH”, the “soluble on expression in E. coli” value is on record as “not soluble”.
Regarding “MEARFAELLAAYCLEAQSGETVLVEAETPALPLLPHLKRALLRRGAYPLIRLSYPGEERDFLLFGGRWLEEVPEAELALYQRADKFLRVLSAENPLEAAAVDPALALRRQRAWRLLQEIRLGKRWALTLYPTVGYAVGAGMGTEEFRAYLERALFLDREDPVAAWQELSRFQEGLIRRLSAAKELRILAPGTDLRLSVAGRTWVNSDGRRNMPSGEVFTGPVEDSAEGEVRFNLPAFVGGRRVKGVYLRFARGQVVKARAKAGKAYLQAALATDEGARRLGEVGIGTNFALDRPTGLVLLDEKMGGTVHLALGRSYPEAGGRNESALHWDLVLSLREGRLLLDGTPLLEAGRFL”, the “soluble on expression in E. coli” value is recorded as “soluble”.
Under “MEAVAEHDFQAGSPDELSFKRGNTLKVLNKDEDPHWYKAELDGNEGFIPSNYIRMTECNWYLGKITRNDAEVLLKKPTVRDGHFLVRQCESSPGEFSISVRFQDSVQHFKVLRDQNGKYYLWAVKFNSLNELVAYHRTASVSRTHTILLSDMNVETKFVQALFDFNPQESGELAFKRGDVITLINKDDPNWWEGQLNNRRGIFPSNYVCPYNSNKSNSNVAPGFNFGN” stands “not soluble”; under “MEDFKSGDLILGYYKVLEKLGEGNFGKVYKVEALKGRYKGKVFALKVASNPYSVHYLWKEAQTLILFHHQNIVSLQSYLYKKDKKELYLIYEYMDFGTLKDYVEKKGKLSPEEALKVLRHVVNALEYLHSRGYIHSDLKPENVFGKRVLGGVLWKLGDFSLVRIRGDVSIIDVKGTIGFIAPEIFRGEIHRSSDIYSLGCLTLYMLTGKVPFEGKDFKERKEKNKRGEVEIPEEIPGKLKDLLERMLEVDYKRRFRTARELKEYMVKEGLI”, “soluble”; under “MEDLQLQVTMRDFLDALTEVEPSATREFAMEIPTATWEDIGGLEKIKERLQAMVEWPLRYPELFQQFGLQTPKGILLSGPPGTGKTLVAKALARESGINFIPVNSSLLFSHWWGEAEKTLHEVFRKARQASPCLLFFDELDALVPARKAGEGSSIGSRLVSQFLMELDGLEELREVIVLGATNRIDMIDPAVLRPGRFDQILEFPYPDQAARKEIFQIYLRNRPVDPGINLDSLAGAAEGLVGSEIEALCKRAALLAVSEVINHKGAGAYIKTCHLEQALAEIQAEKQQARTGAENHTLRPVWNNVVPGAISQVGRLEHHHHHH”, “soluble”.
“MEEARLLVTCPDRPGIVAAVSGFLYAHGANITDLQQHSTDPEGGTFFMRVAFTASHLDLARPALERAFQEVVASRFQMQWRLAYASERKRTAILVSKPAHALLELLWRYRVGELPMELRLVISNHPDHREEVERFGIPYHHVPVEKGRKEEAEERILALLEAEGVELVVLARYMQILSPGFVERFPMRIINIHHSFLPAFAGADPYRQAYERGVKLIGATAHYVTEELDQGPIIEQDVVRVSHRHSVREMKRLGRELERTVLARAVRWHLEDRILVHENRTVVFV”: the “soluble on expression in E. coli” value is on record as “soluble”.
In the case of “MEEELQHSHCVNCVSRRCMTRPEPGISCDLIGCPLVCGAVFHSCKADEHRLLCPFERVPCLNSDFGCPFTMARNKVAEHLEMCPASV”, the “soluble on expression in E. coli” value is “soluble”.
Under “MEEEQLLDYEEEQEEIQDKQPEVGGGDARKTKGTYASIHSSGFRDFLLKPEILRAIGDCGFEHPSEVQHECIPQAILGMDVVCQAKSGMGKTAVFVITTLQQLEPVDGEVSVVCMCHTRELAFQISKEYERFSKYLPGVKVAVFFGGMAIKKDEERLANDCPHIVVGTPGRMLALARSGKLKLDKVKYFVLDECDKMIGDADMRRDVQEIVKMTPQQKQVMMFSATLPKELRTVCKRFMQDPMEVYVDDEAKLTLHGLQQHYVKLKEAEKNRRLLNLLDALEFNQVVIFVKAVKRCEALHQLLTEQNFPSIAIHRQMAQEERLSRYQAFKDFQKRILVATDLFGRGMDIERVNIVFNYDMPEDSDSYLHRVARAGRFGTKGLAITFVSDENDAKTLNSVQDRFDISITELPEKIDVSTYIEGRTN” stands “not soluble”; under “MEEHPKILSIAGSDSCAGAGMQADLKTAMSLGCHCCTILVVLTAQNTKEVKSIIEVDEKFIVEQLDAIFTDITIEVVKLGVLYSKKIISLIHNYITNINKMREKKLLVVFDPVFVSSSGCMLVENLDYVKYALDLICPLSCIITPNFYECKVILEALNFNIDINNMRTSDLCKLVTEKLNINACLFKSCNIDINTEDENKLYAVDHLCIKNDNDYDTKIKQNISYDVYKLKSKRNPQKDIHGTGCTLSTAISCFLSKKYDIIQACIESKKYIYNCINYAYDLGSKSQGLNHLKAAQHLTDFRELQVIKVD”, “not soluble”.
